Values quoted from earlier work as cited in paper PMC13428679.

How the values were obtained:
[1] = biological target: Skp1 (Dictyostelium discoideum) (UniProt P52285)
[2] = biological target: Fbs1 (Cavia porcellus)
Sequence of Fbs1 (Cavia porcellus) (Q80UW2 whole entry): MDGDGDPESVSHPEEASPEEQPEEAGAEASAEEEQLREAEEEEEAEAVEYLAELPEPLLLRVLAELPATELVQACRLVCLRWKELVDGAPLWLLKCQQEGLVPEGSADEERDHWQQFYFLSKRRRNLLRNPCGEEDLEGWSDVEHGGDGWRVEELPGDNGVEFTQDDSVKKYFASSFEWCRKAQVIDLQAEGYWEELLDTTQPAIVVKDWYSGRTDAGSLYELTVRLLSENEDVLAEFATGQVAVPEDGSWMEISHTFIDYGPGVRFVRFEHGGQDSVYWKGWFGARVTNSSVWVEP

Row | Kd [1] | Kd [2] | Substance
1 | 2.5 µM |  | Skp1 (from UniProt P52285)
2 |  | 25 µM | Skp1 (from UniProt P63208)
